Assay results as given in article PMC2259325.
Read-outs that look alike come from different tables or passages of the source.

Key:
[1] = molecular target: Hck SH3 (Homo sapiens) (UniProt P08631); details: cited from earlier work
[2] = molecular target: Hck SH3 (Homo sapiens) (UniProt P08631); details: cited from earlier work; remark: listed apart in the source
[3] = molecular target: GST-Fyn SH3 domain fusion protein (wild type) (UniProt P06241); assay: SPR; Biacore 3000, HBS buffer (10 mM Hepes-NaOH pH 7.4, 150 mM NaCl, 0.005% Tween-20), 25°C; GST-SH3 captured on CM5 chip via amine-coupled anti-GST antibody; NS5A 3 μM - 100 nM flowed over, in triplicate; 1:1 Langmuir fit
Sequence of GST-Fyn SH3 domain fusion protein (wild type) (P06241 82-143): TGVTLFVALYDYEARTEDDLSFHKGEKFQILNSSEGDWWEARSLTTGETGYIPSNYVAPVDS

Sequence of Hck SH3 (Homo sapiens) (P08631 75-141): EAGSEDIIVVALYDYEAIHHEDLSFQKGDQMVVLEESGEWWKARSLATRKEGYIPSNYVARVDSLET

In the case of Nef (from UniProt P04324), the Kd [1] is given as 0.25 µM.

In the case of “Nef PxxPxR-containing peptide PxxPxR peptide (from UniProt P04324)”, the Kd [2] is listed as 91 µM.

For “NS5A(Δ250), N-terminally truncated hepatitis C virus non-structural 5A protein (domain or fragment)”, the koff [3] was 0.00494 s⁻¹ and the kon [3] was 9050 M⁻¹ s⁻¹.
